From the supplement of paper PMC9942255
Values joined by “and” are separate entries in the source; they are usually repeats but may differ in a detail not shown here. Equal entries are not always repeated.

The sequences below were run on Bacillus subtilis DB104 (SP-AmyQ fusion secretion) (assay: AmyQ secretion efficiency, weighted average sort bin (1 = best secretion, 10 = worst) (bin number (weighted average, 1-10)); higher = lower secretion efficiency).
Method in brief: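 Designed signal peptides were fused to mature AmyQ and expressed from the amyE locus in B. subtilis DB104, and this library was loaded at about 0.3 cells per ~65 nL alginate bead together with fluorescein-starch. After about 13 h of growth at room temperature and nile red staining, occupied beads were split into 10 equally populated bins by green/red fluorescence ratio using large-particle flow cytometry. Amplicons from every bin were Illumina-sequenced. The secretion score is the average bin number weighted by read frequency and normalised to beads per bin, excluding low-abundance sequences.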
MKKKQVMLALTAAAGLGLTALHKRPAAKAAPL was tested, and the AmyQ secretion efficiency was 6.71.
MLKKIALTLCPAIVAPASAHVS was tested, and the AmyQ secretion efficiency was 6.21.
For MRPVFPLILSAVLFLSCFTGARQTEASASKR, the AmyQ secretion efficiency was 3.07.
For MKKRLIAPMLLSAASLAFFAMSGSAQKAAY, the AmyQ secretion efficiency was 6.67.
Work on MSSGTVIASILLSFLSVLSGGHHESKAFPV yielded an AmyQ secretion efficiency of 6.28.
With MNKKYFKRRKCKRFTSALFPTFSSVTAAQG the AmyQ secretion efficiency was 6.71.
With MKIRKILLMMALFFMMLISAVPALAAGT the AmyQ secretion efficiency was 2.45.
In the case of MKRFSTAYTTGGILCSAAVFLIGAPSRALGAEV, the AmyQ secretion efficiency is reported as 8.46.
In the case of MKKWIYVVLVLSIAGIGGFSNHAASS, the AmyQ secretion efficiency is reported as 6.81.
MKNMSCKLVVSVTLFFSFLTIGPLSHAQNS was tested, and the AmyQ secretion efficiency was 2.11.
With MGLGKKLSVAVAASFMSLSISLPGVQGAEG the AmyQ secretion efficiency was 1.9.
In the case of MKRKRLLSSLAISALSLGLLVSAPTASFAAES, the AmyQ secretion efficiency is reported as 2.64 and 3.51.
For MKKMLGKLLITAGILVFFAVVVKDVFSAGL, the AmyQ secretion efficiency was 3.11.
MKKIITATTAVVLGSTLFAGAASAQSI showed an AmyQ secretion efficiency of 2.35.
Sequence MLKKKWMVGLLAGCLAAGFFGYNAFATEN has an AmyQ secretion efficiency of 6.85.
Sequence MIAYFKCLLLVTIMFLGVLFGMQQANHG has an AmyQ secretion efficiency of 6.01.
Sequence MKKKQVMLALTAAAGLGLTALHSAPAEKAAPL has an AmyQ secretion efficiency of 6.32.
In the case of MFNRLFRVCFLAALIMAFTLPNSVYTQKP, the AmyQ secretion efficiency is reported as 4.86.
Sequence MKRIRIPMTLALGAALTIAPLSASAEEN has an AmyQ secretion efficiency of 2.88.
Sequence MKKGKRTRTIGLLTVSIASPSFAAEK has an AmyQ secretion efficiency of 6.26.
MKTLRTLCVLMILSGVIFFGLKLDAKDI was tested, and the AmyQ secretion efficiency was 7.62.
With MLCVMMLLFSAIASFPVSSQAKDQ the AmyQ secretion efficiency was 5.36.
Sequence MRSYIKVLTMCFLGLILFVPTSLADNS has an AmyQ secretion efficiency of 2.69.
Sequence MHLIRAAGAVCLAVVLIAGCREAEGENT has an AmyQ secretion efficiency of 4.69.
In the case of MFKKLKRRKSALTFSLSLVLPLDGHAKAQEV, the AmyQ secretion efficiency is reported as 6.09.
Work on MKWMCSICCAAVLLAGGAVQAEAV yielded an AmyQ secretion efficiency of 2.89.
Work on MKKWIYVVLVLSIAGIGGFSVHMASS yielded an AmyQ secretion efficiency of 5.57.
MRPVFPLILSAVLFLSCFFGATQTEASASKR gave an AmyQ secretion efficiency of 2.13.
Work on MKKKQVMLALTAAAGLGLTALHSAPARKAAPL yielded an AmyQ secretion efficiency of 5.26.
MRKSLITLGLASVISIIVFLIAFTSKTASAETL was tested, and the AmyQ secretion efficiency was 2.48.
MNLNTILLSSALSLGMLVSAAPVLATSS showed an AmyQ secretion efficiency of 1.5.
Work on MSGSTLIILALFVLSLGLLSFMVTPVSAASK yielded an AmyQ secretion efficiency of 4.39.
Work on MFNRLFRVCFLAALIMAFTLPNSWYAQKP yielded an AmyQ secretion efficiency of 7.03.
MLTKRLLTIYIMLLGLIAWFPGAAQGEEK gave an AmyQ secretion efficiency of 2.56.
MKKVMLATALFLGLTPAGANIADL gave an AmyQ secretion efficiency of 6.67.
Sequence MKRIRIPMTLALGAALTIAPLSFASAKKR has an AmyQ secretion efficiency of 3.26.
MKKWIYVVLVLSIAGIGGFSGHAASS was tested, and the AmyQ secretion efficiency was 5.88.
Work on MRSYIKVLTMCFLGLILFVRRKALADNS yielded an AmyQ secretion efficiency of 6.5.
Work on MTKLKMLSMRSRMIASLFIFSSQALAVQY yielded an AmyQ secretion efficiency of 3.8.
For MRMLWRSLALCGLALPCAQAAEP, the AmyQ secretion efficiency was 6.75.
With MTKKAWFLTLVCVLLISGWLAPAASASAQTT the AmyQ secretion efficiency was 1.56.
In the case of MRSYIKVLTMCFLGLILFVPTCLADNS, the AmyQ secretion efficiency is reported as 2.04.
Work on MKKIRRRKRKCLAALFTIGFPAQQADAAEA yielded an AmyQ secretion efficiency of 7.19.
In the case of MKKRKRRNFKRFIAAFLVLALMISLVPADSLAKST, the AmyQ secretion efficiency is reported as 2.3.
Sequence MKKRLIGFLVLVPALIEDEEELIEANKK has an AmyQ secretion efficiency of 7.82.
In the case of MLCVMMLLFSAIASFPVSAQAAPQ, the AmyQ secretion efficiency is reported as 4.18.
In the case of “MKKKTLSLFVGLMLLIGLLFSGSLPYNPNAAEASSS [wt_amyM]”, the AmyQ secretion efficiency is reported as 3.81.
MTMLRKIIGWILLLCIIPLFAFTVIISGKEV showed an AmyQ secretion efficiency of 5.66.
MKLSVKIAGVLTVAAAAMTAKMYTTAKGN was tested, and the AmyQ secretion efficiency was 7.65.
MRPVFPLILSAVLFLSCFFGARQTEASRSKR gave an AmyQ secretion efficiency of 2.45.
For MKTKTFLFIFSAILTLSIFAPNETFAQTA, the AmyQ secretion efficiency was 2.73.
MKSKGSIMACLILFSFTITTFINTETISAEED gave an AmyQ secretion efficiency of 4.14.
MKLAKRVSALTPSTTLAITAKAARK showed an AmyQ secretion efficiency of 7.54.
Work on MKKRKCLLFLTTIALILSLSTNAFAKNT yielded an AmyQ secretion efficiency of 1.8.
Work on MFNRLFRVCFLAALIMAFTLPNSVYHQKP yielded an AmyQ secretion efficiency of 6.83.
Work on MKRIRIPMTLALGAALTIAPLSFASTEEN yielded an AmyQ secretion efficiency of 8.25.
MRKKRVITCVMAASPAGYATAKED was tested, and the AmyQ secretion efficiency was 7.65.
Sequence MLKRTSFVSSLFISSAVLLSILLPSGQAHARKR has an AmyQ secretion efficiency of 3.12.
MFSIFSLIMMTGLLFGLTSPAFAAEK gave an AmyQ secretion efficiency of 4.78.
Sequence MRPVFPLILSAVLFLSCFFGARQTEHSASKR has an AmyQ secretion efficiency of 6.3.
In the case of MTKYTVIASILLSFLSVLSGGHHESKAFPV, the AmyQ secretion efficiency is reported as 6.55.
MMTIWIGMLAAAVLLLMVPKVSLADAA showed an AmyQ secretion efficiency of 5.79.
Work on MRSKKLWISLLFALTLIFTMAFSNMSVVTGAQAAGK yielded an AmyQ secretion efficiency of 2.11.
